Consider 1 molecule from US20240336661A1, “PEPTIDES DERIVED FROM RUMINOCOCCUS TORQUES” (University of Copenhagen, priority 2021, published 2024).

The subject of one test is perfused rat colon. As to the kind of experiment: Hormone release in the isolated perfused rat colon. The source says:
FIG. 14. Recombinant RUCILP2 stimulates glucagon like peptide-1 (GLP-1) secretion in perfused rat colon when RUCILP2 is perfused through the luminal route. Left, GLP-1 secretion from the isolated perfused rat colon in the presence of RUCILP2, means±SEM, n=6 in each group. Right, baseline subtracted total GLP-1 output during 10-min (minutes 12-21) luminal infusions. **, p<0.01 using Student's t test.
FIG. 15. Recombinant RUCILP2 stimulates Peptide-YY (PYY) secretion in perfused rat colon when RUCILP2 is perfused through the luminal route. Left, PYY secretion from the isolated perfused rat colon in the presence of RUCILP2, means±SEM, n=6 in each group. Right, baseline subtracted total PYY output during 10-min (minutes 12-21) luminal infusions. **, p<0.01 using Student's t test.
FIG. 16. Recombinant RUCILP2 stimulates somatostatin secretion in perfused rat colon when RUCILP2 is perfused through the luminal route. Left, Somatostatin secretion from the isolated perfused rat colon in the presence of RUCILP2, means±SEM, n=6 in each group. Right, baseline subtracted total Somatostatin output during 10-min (minutes 12-21) luminal infusions. *, p<0.05 using Student's t test.
Animals: Male Wistar rats (˜250 g) were obtained from Janvier (Le Genest-Saint-Isle, France) and housed with two to four rats per cage. Rats were allowed one week of acclimatization kept on a 12:12 h light/dark cycle with ad libitum access to water and standard chow.
Isolation and perfusion of the proximal rat colon: At the day of experiment, non-fasted rats were anaesthetized with a subcutaneous injection of Hypnorm/Midazolam (0.0158 mg fentanyl citrate+0.5 mg fluanisone+0.25 mg midazolam/100 g). When lack of reflexes was established, rats were placed on a heating plate (37° C.) and the abdominal cavity opened. […] A plastic tube was placed in the lumen of the colon, and the colon was gently flushed with isotonic saline (room temperature) to remove luminal contents. Throughout the experimental protocol, a constant luminal flow of saline was applied via a syringe pump (0.15 ml/min). […] A metal catheter was inserted into vena portae to collect the venous effluent. […] As an indicator of health of the colon, perfusion pressure was monitored throughout the experiment. […]
Hormone measurement: Peptide hormones were measured using in-house radioimmunoassays: total GLP-1 (the sum of 7-36NH2, 9-36NH2 and potential mid-terminal cleaved fragments) was measured using a C-terminal specific antibody targeting amidated forms of GLP-1 (code no. 89390). Total PYY (PYY1-36+PYY3-36) was measured with a porcine antiserum (cat. no T-4093; Bachem). Somatostatin was measured using a side-viewing antibody (code no. 1758-5), detecting all bioactive forms of somatostatin.

For the next test, the system named is H9C2 cardiomyoblasts. As to the kind of experiment: Gene expression in H9C2 cardiomyoblasts. The test is classed as cell-based. As to conditions: q-PCR. The method, then: (§1) FIG. 13. […] The cells were treated with various doses of RUCILP2, and cells were collected for q-PCR quantification on indicated genes. For integrin inhibitor treatment, cells were treated with 10 uM of cRGDyK (Selleckchem, #S7844) for 10 minutes and washed with PBS before treated with RUCILP2. Data are presented as mean+/−SEM of one representative experiment done in technical triplicate. Statistical significance was determined by unpaired two-tailed Student's t-test. *, p<0.05 vs 0 nM RUCILP2.
Commercially available H9C2 cells (ATCC, #CRL-1446) were seeded on 12-well plates under DMEM/F-12 medium (Dulbecco's Modified Eagle Medium/Nutrient Mixture F-12, Fisher Scientific, #11524436), supplemented with 10% FBS (Fetal Bovine Serum, Fisher Scientific, #11550356) and 1% Penicillin-Streptomycin (Fisher Scientific, #11548876). Cell cultures were maintained in a humidified chamber with 5% CO2 at 37° C., and culture media were changed every 2-3 days.
At 70% confluence, the cells were treated with indicated concentrations of recombinant RUCILP2, commercial recombinant irisin (Sigma, #SRP8039-10UG and Phoenix pharmaceuticals, #067-29A), and PBS for 24 h. For integrin inhibitor treatment, cells were treated with 10 μM of CycloRGDyK (Selleckchem, #S7844) for 10 minutes and washed with PBS before treated with recombinant RUCILP2, commercial recombinant irisin and PBS. […]

Another test has as its system HepG2 cell line. As to the kind of experiment: Gluconeogenesis gene expression in HepG2 cells. The format is cell-based. The conditions noted are these: HepG2, q-PCR. The method, then:
as §1
HepG2 cells were seeded on 12-well plates under DMEM/F-12 medium (Dulbecco's Modified Eagle Medium/Nutrient Mixture F-12, Fisher Scientific, #11524436), supplemented with 10% FBS (Fetal Bovine Serum, Fisher Scientific, #11550356) and 1% Penicillin-Streptomycin (Fisher Scientific, #11548876). Cell cultures were maintained in a humidified chamber with 5% C02 at 37° C., and culture media were changed every 2-3 days.
At 70% confluence, to induce insulin resistance, HepG2 cells were incubated with 18 mM glucosamine (GlcN) for 18 h in serum-free medium, followed by treatment with recombinant RUCILP2 or commercial recombinant irisin (Sigma, #SRP8039-10UG and Phoenix pharmaceuticals, #067-29A), or saline for 24 h. […]

B1: RUCILP2: 87 amino acid irisin-like polypeptide cleaved from the Ruminococcus torques FNDC5-like protein RUMTOR_00181; recombinant, 6-His-tagged from E. coli (protein)
chain: APVDVKVSEITETSAKASWKNAADGKEAAGYNVYVDGVKLNKELLTEASCGLTNLKAETTYFVEVTAVDAAGNESVKSEKVTFKTLK
modifications: 6-His tag; Ruminococcus torques
notes: 87 amino acid irisin-like polypeptide cleaved from the Ruminococcus torques FNDC5-like protein RUMTOR_00181; recombinant, 6-His-tagged from E. coli
For B1, the “gut luminal release of Glucagon-like-peptide-2 (GLP-2)” value in the test on perfused rat colon (luminal infusion) is listed as “stimulatory effects”. For the same molecule, in the test with perfused rat colon (luminal perfusion), the GLP-1 secretion entry is recorded as “stimulates”, the “Peptide-YY (PYY) secretion” value was “stimulates” and the somatostatin secretion result was “stimulates”. Also, in the test with H9C2 cardiomyoblasts, the “gene expression in H9C2 cardiomyoblasts (markers of cardiomyogenesis)” value was “stimulate gene expression”. For the same molecule, the “expression of genes involved in gluconeogenesis” value in the test on HepG2 cell line is on record as “reduces expression”.
